Each block holds one compound with its values, some of them ahead of it. Ends that are not written are not given here. Peptide text beside a SMILES is read from it. * marks the point of attachment. Biotin = O=C1N[C@H]2[C@H](CS[C@H]2CCCCC(=O)*)N1
Legend:
Experiment in all cases: G' assay (10 uM PL peptide), results of TABLE 7 and TABLE 12
Type in all cases: binding
[1] = target: T1, PDZ protein (GST-PDZ fusion) (Homo sapiens, UniProt Q9NR12); settings: PDZ ENIGMA, PDZ Domain 1
T1 construct: made in house; host or cells: E. coli (DH5alpha, BL21 or JM109)
Method in brief: (§1)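 Biotinylated PL peptides at 10 uM (vs 20 uM in G^0 assay) bound to GST-PDZ fusions; PDZ protein at 5 ug/ml unless another concentration listed. Bound peptide read as A450 nm, classified 0–5 (0 = A450 0; 5 = A450 >4 repeated).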

[2] = target: T2, PDZ protein (GST-PDZ fusion) (Homo sapiens, UniProt P55196); settings: PDZ AF6, PDZ Domain 1
T2 construct: made in house; host or cells: E. coli (DH5alpha, BL21 or JM109)
Method in brief: as §1

[3] = target: T3, PDZ protein (GST-PDZ fusion) (Homo sapiens, UniProt O95049)
T3 construct: made in house; host or cells: E. coli (DH5alpha, BL21 or JM109)
T3 sequence (O95049 1-919): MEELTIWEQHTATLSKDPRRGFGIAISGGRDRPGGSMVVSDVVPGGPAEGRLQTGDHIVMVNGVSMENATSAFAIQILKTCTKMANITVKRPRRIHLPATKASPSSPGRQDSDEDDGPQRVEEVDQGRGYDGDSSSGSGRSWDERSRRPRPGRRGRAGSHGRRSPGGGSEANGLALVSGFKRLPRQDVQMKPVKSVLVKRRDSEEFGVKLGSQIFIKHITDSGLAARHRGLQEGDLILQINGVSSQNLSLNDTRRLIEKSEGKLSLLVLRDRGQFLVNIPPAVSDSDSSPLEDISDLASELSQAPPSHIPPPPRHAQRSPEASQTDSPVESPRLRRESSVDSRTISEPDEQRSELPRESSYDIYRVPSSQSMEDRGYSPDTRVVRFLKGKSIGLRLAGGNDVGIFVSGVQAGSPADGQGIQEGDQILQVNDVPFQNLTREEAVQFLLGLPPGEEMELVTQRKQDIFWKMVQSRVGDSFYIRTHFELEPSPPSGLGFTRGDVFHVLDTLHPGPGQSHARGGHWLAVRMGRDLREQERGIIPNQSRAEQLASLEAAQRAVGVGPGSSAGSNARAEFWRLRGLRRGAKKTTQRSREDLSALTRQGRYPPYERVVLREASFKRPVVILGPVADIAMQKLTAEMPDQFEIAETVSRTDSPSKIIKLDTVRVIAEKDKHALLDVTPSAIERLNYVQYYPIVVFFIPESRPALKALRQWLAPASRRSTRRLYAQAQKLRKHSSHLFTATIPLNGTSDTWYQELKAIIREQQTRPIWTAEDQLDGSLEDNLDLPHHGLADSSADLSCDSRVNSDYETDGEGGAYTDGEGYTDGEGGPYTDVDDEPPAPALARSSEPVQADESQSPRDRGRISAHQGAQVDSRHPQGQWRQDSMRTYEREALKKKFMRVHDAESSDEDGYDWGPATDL
Method in brief: as §1

[4] = target: T4, PDZ protein (GST-PDZ fusion) (Homo sapiens, UniProt Q9ULJ8); settings: PDZ KIAA1222, PDZ Domain 1
T4 construct: made in house; host or cells: E. coli (DH5alpha, BL21 or JM109)
Method in brief: as §1

[5] = target: T5, PDZ protein (GST-PDZ fusion) (Homo sapiens, UniProt Q99767); settings: PDZ X11-beta
T5 construct: made in house; host or cells: E. coli (DH5alpha, BL21 or JM109)
T5 sequence (Q99767 1-749): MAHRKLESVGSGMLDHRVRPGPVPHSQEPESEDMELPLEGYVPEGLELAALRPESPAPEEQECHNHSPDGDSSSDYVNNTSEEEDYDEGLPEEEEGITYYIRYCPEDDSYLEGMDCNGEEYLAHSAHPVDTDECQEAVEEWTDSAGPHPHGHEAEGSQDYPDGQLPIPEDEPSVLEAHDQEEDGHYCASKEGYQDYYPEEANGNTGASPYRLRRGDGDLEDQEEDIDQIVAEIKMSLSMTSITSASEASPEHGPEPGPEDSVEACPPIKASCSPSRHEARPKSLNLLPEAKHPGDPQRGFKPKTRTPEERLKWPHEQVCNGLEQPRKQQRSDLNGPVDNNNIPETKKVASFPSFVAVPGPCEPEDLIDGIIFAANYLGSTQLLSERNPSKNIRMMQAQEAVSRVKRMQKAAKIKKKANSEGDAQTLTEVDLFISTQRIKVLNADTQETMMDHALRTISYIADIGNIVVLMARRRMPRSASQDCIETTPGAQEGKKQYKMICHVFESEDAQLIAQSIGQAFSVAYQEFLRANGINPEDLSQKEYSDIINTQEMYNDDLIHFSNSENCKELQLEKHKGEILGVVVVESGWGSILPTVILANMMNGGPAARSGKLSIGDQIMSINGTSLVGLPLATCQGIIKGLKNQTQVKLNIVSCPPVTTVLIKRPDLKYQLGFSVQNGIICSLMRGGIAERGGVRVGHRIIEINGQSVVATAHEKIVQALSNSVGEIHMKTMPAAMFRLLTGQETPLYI
Method in brief: as §1

T4 sequence (Q9ULJ8 whole entry, the tested form may be a part): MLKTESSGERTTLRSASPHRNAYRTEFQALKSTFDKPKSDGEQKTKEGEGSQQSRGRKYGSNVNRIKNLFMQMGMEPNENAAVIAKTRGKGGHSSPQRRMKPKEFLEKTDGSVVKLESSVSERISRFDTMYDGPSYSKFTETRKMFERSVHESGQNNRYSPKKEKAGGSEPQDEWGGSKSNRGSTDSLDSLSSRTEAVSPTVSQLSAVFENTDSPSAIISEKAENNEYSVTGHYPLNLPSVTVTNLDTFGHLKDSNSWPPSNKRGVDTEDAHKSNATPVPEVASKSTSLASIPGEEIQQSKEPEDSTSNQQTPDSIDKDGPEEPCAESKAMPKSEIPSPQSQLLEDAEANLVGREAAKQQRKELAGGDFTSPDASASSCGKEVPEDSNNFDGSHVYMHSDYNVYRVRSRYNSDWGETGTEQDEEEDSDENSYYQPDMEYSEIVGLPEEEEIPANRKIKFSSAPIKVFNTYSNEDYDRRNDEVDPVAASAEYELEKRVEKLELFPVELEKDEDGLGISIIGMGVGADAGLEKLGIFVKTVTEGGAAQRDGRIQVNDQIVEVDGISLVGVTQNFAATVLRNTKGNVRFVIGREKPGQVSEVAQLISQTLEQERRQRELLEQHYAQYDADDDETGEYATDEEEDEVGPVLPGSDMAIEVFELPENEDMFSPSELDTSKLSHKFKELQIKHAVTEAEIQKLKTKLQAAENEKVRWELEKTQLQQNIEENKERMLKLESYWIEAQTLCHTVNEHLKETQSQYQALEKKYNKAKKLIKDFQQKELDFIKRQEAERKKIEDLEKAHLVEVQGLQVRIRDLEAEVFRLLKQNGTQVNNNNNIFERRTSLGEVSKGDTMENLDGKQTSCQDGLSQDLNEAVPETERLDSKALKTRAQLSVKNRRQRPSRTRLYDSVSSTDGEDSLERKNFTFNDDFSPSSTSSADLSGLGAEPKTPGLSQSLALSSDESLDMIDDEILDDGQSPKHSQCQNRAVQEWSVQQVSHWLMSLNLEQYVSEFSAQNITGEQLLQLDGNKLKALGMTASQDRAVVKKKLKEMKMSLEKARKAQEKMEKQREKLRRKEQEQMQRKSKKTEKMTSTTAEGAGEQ
T1 sequence (Q9NR12 whole entry, the tested form may be a part): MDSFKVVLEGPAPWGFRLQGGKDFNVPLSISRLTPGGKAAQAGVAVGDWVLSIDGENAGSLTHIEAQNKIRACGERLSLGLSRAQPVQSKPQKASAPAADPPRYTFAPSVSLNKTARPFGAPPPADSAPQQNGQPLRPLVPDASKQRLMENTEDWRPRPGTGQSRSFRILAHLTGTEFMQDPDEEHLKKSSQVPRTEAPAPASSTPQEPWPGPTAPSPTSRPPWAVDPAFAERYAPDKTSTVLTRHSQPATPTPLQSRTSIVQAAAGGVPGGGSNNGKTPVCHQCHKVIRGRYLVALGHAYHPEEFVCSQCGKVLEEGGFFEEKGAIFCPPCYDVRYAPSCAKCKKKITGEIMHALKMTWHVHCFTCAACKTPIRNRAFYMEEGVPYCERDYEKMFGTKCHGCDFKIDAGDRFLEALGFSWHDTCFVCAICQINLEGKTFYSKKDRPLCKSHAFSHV
T2 sequence (P55196 whole entry, the tested form may be a part): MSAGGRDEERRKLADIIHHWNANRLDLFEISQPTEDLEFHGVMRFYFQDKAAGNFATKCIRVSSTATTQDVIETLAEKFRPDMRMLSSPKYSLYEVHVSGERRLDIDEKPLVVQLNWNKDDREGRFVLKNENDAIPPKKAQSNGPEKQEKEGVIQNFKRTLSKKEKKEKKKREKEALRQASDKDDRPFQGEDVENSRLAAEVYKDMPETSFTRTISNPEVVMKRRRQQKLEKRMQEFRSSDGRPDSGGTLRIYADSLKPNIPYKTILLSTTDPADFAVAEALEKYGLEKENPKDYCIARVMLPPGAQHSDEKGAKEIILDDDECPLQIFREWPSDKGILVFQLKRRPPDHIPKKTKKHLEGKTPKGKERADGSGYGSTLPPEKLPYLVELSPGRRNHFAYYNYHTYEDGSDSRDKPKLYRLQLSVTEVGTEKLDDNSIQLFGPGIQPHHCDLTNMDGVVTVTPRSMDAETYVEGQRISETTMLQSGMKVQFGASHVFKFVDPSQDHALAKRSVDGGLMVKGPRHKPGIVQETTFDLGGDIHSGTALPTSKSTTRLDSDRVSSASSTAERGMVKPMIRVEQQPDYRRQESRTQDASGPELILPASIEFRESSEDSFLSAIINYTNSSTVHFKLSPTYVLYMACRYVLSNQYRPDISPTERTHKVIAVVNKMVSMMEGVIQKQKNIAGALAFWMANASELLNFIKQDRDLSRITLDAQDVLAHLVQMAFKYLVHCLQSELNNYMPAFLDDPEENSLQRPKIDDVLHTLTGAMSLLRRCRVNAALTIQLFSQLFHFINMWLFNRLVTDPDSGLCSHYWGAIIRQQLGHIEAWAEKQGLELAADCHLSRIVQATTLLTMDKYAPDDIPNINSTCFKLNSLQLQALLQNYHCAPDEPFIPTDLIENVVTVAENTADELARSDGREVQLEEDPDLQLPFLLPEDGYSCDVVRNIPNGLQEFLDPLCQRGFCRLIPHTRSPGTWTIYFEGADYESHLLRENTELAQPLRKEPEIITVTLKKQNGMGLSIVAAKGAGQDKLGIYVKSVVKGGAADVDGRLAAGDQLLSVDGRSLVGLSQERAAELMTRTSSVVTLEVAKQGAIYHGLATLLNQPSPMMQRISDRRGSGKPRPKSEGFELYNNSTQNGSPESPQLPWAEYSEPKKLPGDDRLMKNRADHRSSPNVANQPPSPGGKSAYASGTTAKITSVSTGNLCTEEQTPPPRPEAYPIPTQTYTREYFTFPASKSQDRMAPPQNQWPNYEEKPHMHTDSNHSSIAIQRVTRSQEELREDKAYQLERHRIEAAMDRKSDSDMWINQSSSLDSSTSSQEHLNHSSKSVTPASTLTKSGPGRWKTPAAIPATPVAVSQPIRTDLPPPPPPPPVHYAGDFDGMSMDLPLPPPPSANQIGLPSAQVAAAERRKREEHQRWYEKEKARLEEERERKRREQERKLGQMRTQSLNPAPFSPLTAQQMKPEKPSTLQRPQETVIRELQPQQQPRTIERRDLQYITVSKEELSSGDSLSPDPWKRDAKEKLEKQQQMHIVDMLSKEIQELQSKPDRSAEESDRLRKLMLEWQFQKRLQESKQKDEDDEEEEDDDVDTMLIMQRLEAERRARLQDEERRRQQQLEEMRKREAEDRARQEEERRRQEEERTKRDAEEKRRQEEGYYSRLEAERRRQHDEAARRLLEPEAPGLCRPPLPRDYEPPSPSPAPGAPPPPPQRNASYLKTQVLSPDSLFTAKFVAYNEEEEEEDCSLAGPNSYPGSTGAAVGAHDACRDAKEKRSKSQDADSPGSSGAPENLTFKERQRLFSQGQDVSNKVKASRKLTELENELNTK

Compound: GGGGGSGGGGGSGIESVKI [GLUR2 (glutamate receptor 2-modified)]
Classification [1]: 1 (A450 nm 0-1)

Compound: GPVPGEPAKPKTSAHHATFV (Biotin-GPVPGEPAKPKTSAHHATFV)
Classification [2]: 1 (A450 nm 0-1)

Compound: VHDAESSDEDGYDWGPATDL (Biotin-VHDAESSDEDGYDWGPATDL) [zona occludens 3 (ZO-3)]
Classification [1]: 1 (A450 nm 0-1)

Compound: CC(C)C[C@H](NC(=O)[C@H](CC(=O)O)NC(=O)[C@H](CO)NC(=O)[C@H](CCC(=O)O)NC(=O)CNC(=O)[C@H](Cc1ccc(O)cc1)NC(=O)[C@H](CC(C)C)NC(=O)[C@H](C)NC(=O)[C@H](CO)NC(=O)[C@H](CO)NC(=O)[C@H](Cc1ccccc1)NC(=O)[C@H](C)NC(=O)[C@H](C)NC(=O)[C@H](Cc1ccc(O)cc1)NC(=O)[C@H](CC(=O)O)NC(=O)[C@H](CC(C)C)NC(=O)[C@H](C)NC(=O)CNC(=O)[C@@H]1CCCN1C(=O)[C@@H](NC(=O)CCCC[C@@H]1SC[C@@H]2NC(=O)N[C@@H]21)C(C)C)C(=O)O [a-actinin 2] (Biotin-VPGALDYAAFSSALYGESDL-OH; C-terminus assumed)
Classification [1]: 5 (A450 nm of 4 more than 2× repeated)

Compound: PYSELNYETSHYPASPDSWV (Biotin-PYSELNYETSHYPASPDSWV) [catenin - delta 2]
Classification ([3]; PDZ ZO-3, PDZ Domain 3): 3 (A450 nm 2-3)

Compound: ELLQFCRTPNPALKNGQYWV (Biotin-ELLQFCRTPNPALKNGQYWV)
Classification ([3]; PDZ ZO-3, PDZ Domain 1): 2 (A450 nm 1-2) | Classification ([3]; PDZ ZO-3, PDZ Domain 3): 5 (A450 nm of 4 more than 2× repeated) | Classification [2]: 5 (A450 nm of 4 more than 2× repeated) | Classification ([5]; PDZ Domain 2): 2 (A450 nm 1-2)

Compound: A2AA_HUMAN (modified) (Biotin-HDFRRAFKKILARGDRKRIV; not fully specified)
Classification ([3]; PDZ ZO-3, PDZ Domain 2): 3 (A450 nm 2-3) | Classification ([5]; PDZ Domain 1): 2 (A450 nm 1-2) | Classification ([5]; PDZ Domain 2): 1 (A450 nm 0-1)

Compound: CC[C@H](C)[C@H](NC(=O)[C@H](Cc1ccc(O)cc1)NC(=O)[C@H](CC(C)C)NC(=O)[C@H](CCC(N)=O)NC(=O)[C@H](Cc1c[nH]cn1)NC(=O)[C@H](CO)NC(=O)[C@H](C)NC(=O)[C@H](CC(C)C)NC(=O)[C@@H](NC(=O)[C@H](CC(=O)O)NC(=O)[C@H](CCSC)NC(=O)[C@H](Cc1ccccc1)NC(=O)[C@@H]1CCCN1C(=O)[C@H](CCCNC(=N)N)NC(=O)[C@@H](NC(=O)[C@H](CC(C)C)NC(=O)[C@H](CC(N)=O)NC(=O)[C@H](CC(=O)O)NC(=O)[C@@H](NC(=O)[C@H](CO)NC(=O)CCCC[C@@H]1SC[C@@H]2NC(=O)N[C@@H]21)[C@@H](C)O)C(C)C)[C@@H](C)O)C(=O)O [presenilin-2] (Biotin-STDNLVRPFMDTLASHQLYI-OH; C-terminus assumed)
Classification [2]: 3 (A450 nm 2-3)

Compound: CC[C@H](C)[C@H](NC(=O)[C@H](CCCCN)NC(=O)[C@@H](NC(=O)[C@H](CO)NC(=O)[C@@H]1CCCN1C(=O)[C@H](Cc1ccccc1)NC(=O)[C@@H](NC(=O)[C@@H](NC(=O)[C@H](CCCNC(=N)N)NC(=O)[C@H](CCC(=O)O)NC(=O)[C@H](CC(C)C)NC(=O)[C@H](CC(C)C)NC(=O)[C@H](CC(C)C)NC(=O)[C@@H](NC(=O)CNC(=O)[C@@H](NC(=O)CCCC[C@@H]1SC[C@@H]2NC(=O)N[C@@H]21)C(C)C)[C@@H](C)O)C(C)C)[C@@H](C)CC)C(C)C)C(=O)N[C@@H](C)C(=O)N[C@H](C(=O)N[C@@H](CC(C)C)C(=O)N[C@H](C(=O)O)C(C)C)[C@@H](C)O [Adenovirus E4 Type9]
Classification ([4]; PL peptide 10 uM): 1 (A450 nm 0-1)

Now from value to compound:

Classification ([3]; PDZ ZO-3, PDZ Domain 3): 1 (A450 nm 0-1) | Classification [4]: 1 (A450 nm 0-1)
Compound: KTMPAAMFRLLTGQETPLYI (Biotin-KTMPAAMFRLLTGQETPLYI) [MINT-2]

Classification ([5]; PDZ Domain 2): 1 (A450 nm 0-1)
Compound: ALVLIAFCIIRRRPSAYQAL (Biotin-ALVLIAFCIIRRRPSAYQAL) [CD68]

Classification [2]: 1 (A450 nm 0-1)
Compound: KTMPAATYRLLTGQEQPVYL (Biotin-KTMPAATYRLLTGQEQPVYL) [MINT-3]

Classification ([3]; PDZ ZO-3, PDZ Domain 1): 2 (A450 nm 1-2) | Classification ([3]; PDZ ZO-3, PDZ Domain 3): 1 (A450 nm 0-1) | Classification [4]: 1 (A450 nm 0-1)
Compound: CC[C@H](C)[C@H](NC(=O)[C@H](Cc1ccc(O)cc1)NC(=O)[C@@H](NC(=O)[C@@H]1CCCN1C(=O)[C@H](CCC(N)=O)NC(=O)[C@H](CCC(=O)O)NC(=O)[C@H](CCC(N)=O)NC(=O)[C@H](C)NC(=O)[C@@H](NC(=O)[C@H](CC(C)C)NC(=O)[C@H](CC(C)C)NC(=O)[C@H](CCCNC(=N)N)NC(=O)[C@H](Cc1ccc(O)cc1)NC(=O)[C@H](CCSC)NC(=O)[C@H](C)NC(=O)[C@H](C)NC(=O)[C@@H]1CCCN1C(=O)[C@H](CCSC)NC(=O)[C@@H](NC(=O)[C@H](CCCCN)NC(=O)CCCC[C@@H]1SC[C@@H]2NC(=O)N[C@@H]21)[C@@H](C)O)[C@@H](C)O)C(C)C)C(=O)O [MINT-1] (Biotin-KTMPAAMYRLLTAQEQPVYI-OH; C-terminus assumed)

— patent US20050282743A1, “Molecular interactions in cells” (Arbor Vita Corporation, priority 2001, published 2005)
